# Results published in the supplement of paper PMC9112550, “Optimization of the antimicrobial peptide Bac7 by deep mutational scanning” (BMC Biology, 2022).
# System: Escherichia coli TOP10
# Assay: shrunken log2 fold change of peptide-encoding DNA abundance (4.5 h post-induction vs induction); higher = less antimicrobial activity (less host growth inhibition)
# Conditions: time post-induction: 4.5 h; library: site-saturation at positions 5, 18, 19, 20
# 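Also: peptides expressed intracellularly from a pBAD plasmid library in pooled LB shake-flask culture, induced with 0.3% L-arabinose, DNA abundance read by NGS, three biological replicates, DESeq2 with apeglm shrinkage.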
row,Sequence,shrunken log2 fold change
1,RRIRMRPPRLPRPRPRPTWMPRP,0.25
2,RRIRMRPPRLPRPRPRPTYCPRP,-0.271
3,RRIRMRPPRLPRPRPRPVALPRP,0.711
4,RRIRMRPPRLPRPRPRPVCNPRP,-0.314
5,RRIRMRPPRLPRPRPRPVCPPRP,0.0129
6,RRIRMRPPRLPRPRPRPVFGPRP,0.411
7,RRIRMRPPRLPRPRPRPVGNPRP,0.0176
8,RRIRMRPPRLPRPRPRPVGVPRP,0.806
9,RRIRMRPPRLPRPRPRPVHEPRP,-0.232
10,RRIRMRPPRLPRPRPRPVHVPRP,-0.0337
11,RRIRMRPPRLPRPRPRPVILPRP,-0.826
12,RRIRMRPPRLPRPRPRPVKLPRP,-0.0873
13,RRIRMRPPRLPRPRPRPVKTPRP,0.0113
14,RRIRMRPPRLPRPRPRPVMLPRP,-0.28
15,RRIRMRPPRLPRPRPRPVMPPRP,-0.0271
16,RRIRMRPPRLPRPRPRPVMSPRP,0.134
17,RRIRMRPPRLPRPRPRPVNHPRP,-0.327
18,RRIRMRPPRLPRPRPRPVNPPRP,0.00934
19,RRIRMRPPRLPRPRPRPVPRPRP,0.606
20,RRIRMRPPRLPRPRPRPVQNPRP,0.0136
21,RRIRMRPPRLPRPRPRPVRKPRP,0.136
22,RRIRMRPPRLPRPRPRPVRWPRP,1.38

row,Sequence,shrunken log2 fold change
1,RRIRMRPPRLPRPRPRPVSFPRP,0.000809
2,RRIRMRPPRLPRPRPRPVVRPRP,0.0837
3,RRIRMRPPRLPRPRPRPVVWPRP,1.57
4,RRIRMRPPRLPRPRPRPVWGPRP,0.185
5,RRIRMRPPRLPRPRPRPWAAPRP,0.502
6,RRIRMRPPRLPRPRPRPWDQPRP,0.0532
7,RRIRMRPPRLPRPRPRPWEDPRP,-0.0122
8,RRIRMRPPRLPRPRPRPWEEPRP,0.317
9,RRIRMRPPRLPRPRPRPWFPPRP,-0.0494
10,RRIRMRPPRLPRPRPRPWGLPRP,0.0219
11,RRIRMRPPRLPRPRPRPWGTPRP,0.254
12,RRIRMRPPRLPRPRPRPWGVPRP,0.187
13,RRIRMRPPRLPRPRPRPWGWPRP,1.08
14,RRIRMRPPRLPRPRPRPWIEPRP,-0.092
15,RRIRMRPPRLPRPRPRPWKDPRP,-0.0578
16,RRIRMRPPRLPRPRPRPWKEPRP,0.0155
17,RRIRMRPPRLPRPRPRPWPQPRP,0.729
18,RRIRMRPPRLPRPRPRPWQRPRP,0.179
19,RRIRMRPPRLPRPRPRPWRKPRP,0.506
20,RRIRMRPPRLPRPRPRPWRWPRP,0.205
21,RRIRMRPPRLPRPRPRPWSAPRP,0.149
22,RRIRMRPPRLPRPRPRPWTCPRP,-0.0398

row,Sequence,shrunken log2 fold change
1,RRIRMRPPRLPRPRPRPWWIPRP,-0.442
2,RRIRMRPPRLPRPRPRPYAWPRP,-0.107
3,RRIRMRPPRLPRPRPRPYDSPRP,0.00275
4,RRIRMRPPRLPRPRPRPYFPPRP,-0.213
5,RRIRMRPPRLPRPRPRPYGRPRP,0.0596
6,RRIRMRPPRLPRPRPRPYIDPRP,-0.227
7,RRIRMRPPRLPRPRPRPYKIPRP,-0.544
8,RRIRMRPPRLPRPRPRPYLRPRP,0.0522
9,RRIRMRPPRLPRPRPRPYMQPRP,-0.338
10,RRIRMRPPRLPRPRPRPYNFPRP,-0.363
11,RRIRMRPPRLPRPRPRPYPHPRP,0.00442
12,RRIRMRPPRLPRPRPRPYQAPRP,2.21
13,RRIRMRPPRLPRPRPRPYQFPRP,-0.125
14,RRIRMRPPRLPRPRPRPYRNPRP,-0.18
15,RRIRMRPPRLPRPRPRPYTLPRP,-0.274
16,RRIRMRPPRLPRPRPRPYTQPRP,-0.149
17,RRIRMRPPRLPRPRPRPYVCPRP,-0.00867
18,RRIRMRPPRLPRPRPRPYVEPRP,-0.133
19,RRIRMRPPRLPRPRPRPYVWPRP,-0.0956
20,RRIRMRPPRLPRPRPRPYWGPRP,-0.0296
21,RRIRMRPPRLPRPRPRPYYWPRP,-0.123
22,RRIRNRPPRLPRPRPRPAATPRP,0.285

row,Sequence,shrunken log2 fold change
1,RRIRNRPPRLPRPRPRPACAPRP,0.3
2,RRIRNRPPRLPRPRPRPACIPRP,0.0248
3,RRIRNRPPRLPRPRPRPACSPRP,0.0895
4,RRIRNRPPRLPRPRPRPADVPRP,-0.289
5,RRIRNRPPRLPRPRPRPADWPRP,0.044
6,RRIRNRPPRLPRPRPRPAFSPRP,-0.183
7,RRIRNRPPRLPRPRPRPAFTPRP,-0.176
8,RRIRNRPPRLPRPRPRPAFVPRP,0.154
9,RRIRNRPPRLPRPRPRPAFYPRP,-0.065
10,RRIRNRPPRLPRPRPRPAGWPRP,0.558
11,RRIRNRPPRLPRPRPRPAHMPRP,-0.167
12,RRIRNRPPRLPRPRPRPAICPRP,-0.0274
13,RRIRNRPPRLPRPRPRPAIVPRP,-0.0426
14,RRIRNRPPRLPRPRPRPAKCPRP,-0.384
15,RRIRNRPPRLPRPRPRPAKFPRP,-0.179
16,RRIRNRPPRLPRPRPRPAMKPRP,0.284
17,RRIRNRPPRLPRPRPRPAPEPRP,0.948
18,RRIRNRPPRLPRPRPRPAPWPRP,0.266
19,RRIRNRPPRLPRPRPRPAQSPRP,0.0508
20,RRIRNRPPRLPRPRPRPASEPRP,-0.0216
21,RRIRNRPPRLPRPRPRPASPPRP,0.154
22,RRIRNRPPRLPRPRPRPASTPRP,-0.269

row,Sequence,shrunken log2 fold change
1,RRIRNRPPRLPRPRPRPCAQPRP,0.127
2,RRIRNRPPRLPRPRPRPCCGPRP,-0.148
3,RRIRNRPPRLPRPRPRPCCSPRP,-0.0427
4,RRIRNRPPRLPRPRPRPCCVPRP,-0.667
5,RRIRNRPPRLPRPRPRPCDMPRP,0.0184
6,RRIRNRPPRLPRPRPRPCDYPRP,-0.00992
7,RRIRNRPPRLPRPRPRPCEGPRP,0.111
8,RRIRNRPPRLPRPRPRPCEKPRP,-0.0478
9,RRIRNRPPRLPRPRPRPCFIPRP,-0.86
10,RRIRNRPPRLPRPRPRPCFKPRP,-0.0138
11,RRIRNRPPRLPRPRPRPCFMPRP,-0.742
12,RRIRNRPPRLPRPRPRPCFSPRP,-0.378
13,RRIRNRPPRLPRPRPRPCFWPRP,-0.0333
14,RRIRNRPPRLPRPRPRPCHFPRP,-0.166
15,RRIRNRPPRLPRPRPRPCIMPRP,-0.135
16,RRIRNRPPRLPRPRPRPCLCPRP,-0.275
17,RRIRNRPPRLPRPRPRPCLYPRP,0.0767
18,RRIRNRPPRLPRPRPRPCNHPRP,-0.298
19,RRIRNRPPRLPRPRPRPCNVPRP,-0.00963
20,RRIRNRPPRLPRPRPRPCPYPRP,-0.0128
21,RRIRNRPPRLPRPRPRPCRLPRP,-0.0199
